Assay results reported in patent US20230134571A1 (INTERNATIONAL AIDS VACCINE INITIATIVE, published 2023).

Experiments:
Assay in all cases: cell-based or functional assay
HIV Env, isolate PVO.4 = HIV Env, isolate PVO.4 (HIV)
[1] = target: HIV Env, isolate HIV-16845-2.22 (HIV)
[2] = target: HIV Env, isolate TRJO4551.58 (HIV)
[3] = target: HIV Env, isolate Ce2010_F5 (HIV)
[4] = target: HIV Env, isolate 1394C9G1(Rev-) (HIV)
[5] = target: HIV Env, isolate 231965.c01 (HIV)
HIV Env, isolate CNE30 = HIV Env, isolate CNE30 (HIV)
HIV Env, isolate T278-50 = HIV Env, isolate T278-50 (HIV)
[6] = target: HIV Env, isolate SC422661.8 (HIV)
HIV Env, isolate T263-8 = HIV Env, isolate T263-8 (HIV)
[7] = target: HIV Env, isolate HIV-0013095-2.11 (HIV)
[8] = target: HIV Env, isolate CAP45.2.00.G3 (HIV)
HIV Env, isolate 246FC1G = HIV Env, isolate 246FC1G (HIV)

Binder | IC80 (µg/ml) with constrains (HIV Env, isolate PVO.4) [µg/mL] | IC80 (µg/ml) with constrains [1] [µg/mL] | IC80 (µg/ml) with constrains [2] [µg/mL] | IC80 (µg/ml) with constrains [3] [µg/mL] | IC80 (µg/ml) with constrains [4] [µg/mL] | IC80 (µg/ml) with constrains [5] [µg/mL] | IC80 (µg/ml) with constrains (HIV Env, isolate CNE30) [µg/mL] | IC80 (µg/ml) with constrains (HIV Env, isolate T278-50) [µg/mL] | IC80 (µg/ml) with constrains [6] [µg/mL] | IC80 (µg/ml) with constrains (HIV Env, isolate T263-8) [µg/mL] | IC80 (µg/ml) with constrains [7] [µg/mL] | IC80 (µg/ml) with constrains [8] [µg/mL] | IC80 (µg/ml) with constrains (HIV Env, isolate 246FC1G) [µg/mL]
ePGDM9 (antibody, V domains shown) VH: QAQLVQSGPEVRKPGTSVKVSCKNPGNTLTTYDLHWVRQVPGQGLQWMGWISHEGDKKVIVERFKAKVTIDWDRSTNTAYLQLSGLTSEDTAVYYCAKGSKHRLRDYALYDEDGALNWAVDVDYLANLEFWGQGTAVTVSS VL: DIVLTQSPLSLSVTPGESASISCKSSQSLIHGDRNNYLAWYVQKPGRSPQLLIDLASERASGVPDRFSGSGSRKDFTLKISRVETEDVGTYYCMQGRESPWTFGQGTKVDIK | 7.7 | > 100 | > 100 | > 100 | 0.005 | 0.037 | > 100 | 2.02 | 5.33 | 0.06 | > 100 | 0.005 | > 100
ePGDM5 (antibody, V domains shown) VH: QAQLVQSGPEVRKPGTSVKVSCKNPGNTLTTYDLHWVRQVPGQGLQWMGWISHEGDKKVIVERFKAKVTIDWDRSTNTAYLQLSGLTSEDTAVYYCAKGSKHRLRDYALYDEDGALNWAVDVDYLANLEFWGQGTAVTVSS VL: DFVLTQSPLSLSVTPGESASISCKSDHSLQHGDRNNYLAWYVQKPGRSPQLLIDLASERASGVPDRFSGSGSRKDFTLKIDRVEAEDVGTYYCMQGRESPWTFGQGTKVDIK | 5.57 | > 100 | > 100 | > 100 | 0.009 | 0.035 | > 100 | 4.23 | 5.33 | 0.076 | > 100 | 0.004 | > 100
ePGDM13 (antibody, V domains shown) VH: QAQLVQSGPEVRKPGTSVKVSCKNPGNTLTTYDLHWVRQVPGQGLQWMGWISHEGDKKVIVERFKAKVTIDWDRSTNTAYLQLSGLTSEDTAVYYCAKGSKHRLRDYALYDEDGALNWAVDVDYLANLEFWGQGTAVTVSS VL: DIVLTQSPLSLSVTPGESASISCKSSHSLQHGDRNNYLAWYVQKPGRSPQLLLDLASERASGVPDRFSGSGSEKDFTLKISRVETEDVGTYYCMQGRESPWTFGQGTKVDIK | 11.8 | > 100 | > 100 | > 100 | 0.011 | 0.058 | > 100 | 6.4 | 6.26 | 0.101 | > 100 | 0.007 | > 100
PGDM1400 (antibody, V domains shown) VH: QVHLTQSGPEVRKPGTSVKVSCKAPGNTLKTYDLHWVRSVPGQGLQWMGWISHEGDKKVIVERFKAKVTIDWDRSTNTAYLQLSGLTSGDTAVYYCAKGSKHRLRDYALYDDDGALNWAVDVDYLSNLEFWGQGTAVTVSS VL: DFVLTQSPHSLSVTPGESASISCKSSHSLIHGDRNNYLAWYVQKPGRSPQLLIYLASSRASGVPDRFSGSGSDKDFTLKISRVETEDVGTYYCMQGRESPWTFGQGTKVDIK | 13.6 | > 100 | > 100 | > 100 | 0.012 | 0.242 | > 100 | 21.7 | 62.8 | 0.081 | > 100 | 0.005 | > 100
